Experimental findings from the nanobody polyreactivity screen of Harvey et al. (2022) are described below.

The data set can be described thus: yeast display, Sf9 membrane polyspecificity reagent, FACS + sequencing; frameworks hold sequencing errors. The procedure, abridged: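 After 36–48 hours of galactose induction, yeast (Saccharomyces cerevisiae BJ5465) displaying a synthetic nanobody library were stained at 4 °C for 1 hour with 10% biotinylated, detergent-solubilized Sf9 membrane reagent. Streptavidin microbeads enriched the stained cells before FACS sorting into low and high (top ~1%) gates on anti-HA and streptavidin fluorescence. Each clone's polyreactivity label reflects its gate of origin.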
With “QVQLVESGGGVVQAGGSLRLSCAASGRTFPGNAMGWYRQAPGKERELVASITWSTGSTYYADSVKGRFTISRDNAKNTVYLQMNSLKPEDTAVYYCAADQSVRSYQYSVHRGYWGQGTQVTVSS”, the “polyreactivity (PSR sort gate)” value is given as “high polyreactivity”. The value for “QDQLVESGGGLVQAGGSLRLSCAASGRTFYCYAMGGYRQAPGKDRELVAAISSGDITSYADSVKGRFTISRDNAKNTVYLQMNSVKPEDTAVYYCAAEVVAWSLYEDFKTYDYWGQGTQVTVSS” was “low polyreactivity”; that for “QVQLVESGGGLVQAGGRLRLSCAASGRIFSKNAMGWYRQAPGKERELVAVISARGGNTYYADSVKGRFTISRDNAKNTVYLQMNSLKPEDTAVYYCNTPRPYEITTREYYYWGQGTQVTVSS” was “high polyreactivity”. As for “QVQLVESGGGLVQAGGSLRLSCAASGSIFGPYAMGWYRQAPWKERELVATSTYYADSVKGRFTISRDNAKNTVYLQMNSLKPEDTAVYYCAKTPYYSGYGWGYDYWGQGTQVTVSS”, the “polyreactivity (PSR sort gate)” value was “low polyreactivity”. As for “QVQLVESGGGLVQAGGSLRLSCAASGIGHNAMGWYRQAPGKERELVAAISSSGGRTYYADSVKGRFTISRDNAKNTVYLQMNSLKPEDTAVYYCARRAVYGIFDYWGQGTQVTVSS”, the entry is “high polyreactivity”; as for “QVQHVESGGGLVQAGGSLRLSCAASGSTFDDNTMGWYRQATGKERELVAAITRSGGSTYYADSVKGRFTISRDNAKNTVYLQMNSLKPEDTAVYYCATYPYSPYYYVYVEPYDYWGQGTQVTVSS”, “low polyreactivity”; as for “QGQLVESGGALVQAGGSLRISCAASGRTISQNSMGLYRPAPGKERELVAAIRRGGSTNYADSVKGRFTISRDNAKNTVFLQMNSLKQEDSAFYYCAGDLRRNGWGFDYWGQGTQVTVSS”, “high polyreactivity”. The value for “QVQLVESGGGLVQAGGSLRLSCAASGSIFFPNAMGWYRQAPGKERELVAAINWSGDSTYYADSVKGRFTISRDNAKNTVYLQMNSLKPEDTAVYYCNATYPWFDYDYWGQGTQVTVSS” was “low polyreactivity”. As for “QVQLVESGGGLVQAGGSLRLSCAASGFTFHTYAMGWYRQAPGKERELVAAIDSSGGITYYADSVKGRFTISRDHAKNTVYLQMNSLKPEDTAVYYCAAVFLLFGFEWSYDYWGQGTQVTVSS”, the entry is “low polyreactivity”; as for “QVQLVESGGGLVQAGGSLRLSCAASGSIFTHNAMGWYRQAPGKERVLVAAISSGGSTNYADSVKGRFTISRDNAKNTVYLQMNSLKPEDTAVYYCAKSIDGWYWRRRRYDYWVQGTQVTVSS”, “low polyreactivity”; as for “QVQLVESGGGLVQAGGSLRLSCAASGIILLFYVMGWYRQAPGKERELVASINGRSARTYYADSVKGRFTISRDNAKNTVYLQMNSLKPEDTAVYYCAAGYRYAGNGQIANTGGYYWGQGTQVTVSS”, “low polyreactivity”. Regarding “QVQLVESGGGLVQAGGSLRLSCAASGRIFEYYAMGWYRQAPGKERELVAAINSSGGSTYYADSVKGRFTISRDNAKNTVYLQMNSLKPEDTAVYYCAARSYASPGWRYEYWGQGTQVTVSS”, the “polyreactivity (PSR sort gate)” value is “low polyreactivity”. As for “QVQLVESGGGLVQAGGSLRLSCAPSRRIFSIYALGSYRQAPGKESELVAAIRWSGGSTYYADSVKGRFTISRDKEKNTVYLQMNSLTPEDTAVYYCNRYYQSYYGWTGPYGYWGQGTQVTVSS”, the entry is “high polyreactivity”; as for “QVQLVESGGGLVQAGGSLRLSCAASGSTFSIYAMGWYRQAPGKERELVAAISSSGGSTYYADSVKGRFTISRDNAKNTFYLQMNSLKPEDTAVYYCNKRKYHVRYDYWGQGTQVTVSS”, “low polyreactivity”; as for “QVQLVESGGGLVRAGGSLRLSCAASGSIFKYYAMGWYRQAPGKDRELVAAISWSGGSTFYADSVKGRFTISRDNAKNTVYLQMNSLKPEDTAVFYCARYKLRSGRSGDHDVYWGQGTQVTVSS”, “high polyreactivity”.

“QVQLLESGGGLVQAGGSLRLSCAASGFIFSKYAMGWYRQAPGKERELVAGINRSGGSTYYADSVKGRFTISRDNAKNTVYFQMNSLKPEDTAVYYCAAPFGVQSRWYGQSGYWGQGTQVTVSS”: the “polyreactivity (PSR sort gate)” value is recorded as “high polyreactivity”. As for “QVQLVESGGGLVQAGGSLRLSCAASGSILVSYAMARYSQAPGKERELVAAISGNSDSTYYADSVKGRFTISRDNAKNTVYLQMNSLKPEDTAVYYCAKEGGNGYDYWGQGTQVTVSS”, the entry is “low polyreactivity”; as for “QVQLVESGGGLVQAGGSLRLSCAASGSTFPTNAMGWYRQAPGKEREFVADITIRGGGTAYADSVKGRFTISRDNAKNTVYLQMTSLKPEDTAVYYCARSKSTELKRLLYDSWGQGTQVTVST”, “low polyreactivity”.

With “QVQLVESGGGLVQAGGSLRLSCAASGSTFASNAMGWYRQAPGKARELVAGISSSDGGTYYADSVKGRFTISRDIAKYNVYLEMKSLKPEDTAVYSCNAPPGTFQWQGHSDYWGQGTEVTVSS”, the “polyreactivity (PSR sort gate)” value was “low polyreactivity”. The value for “QVQLVESAGGLVQAGGSLRLSCAPSGFTFALYAMRWYRQAPGNERELVAANTRSGRTKYADSVKGRFTISRDNAKNTVYLQMNSLKPEDTAVYYCAALFRYYVTTRFNYWGQGTQVTVSS” was “high polyreactivity”; that for “QVHLVESGGGLVQAGGSLRLSCAAYGRSFSSNAMGWYGQAPGKERELVAAISSSGAGTYYADSVKGRFTISRDNAKNTVYLQMNRLKPEDTAVYYCAARANSYHSFTSHYDYWGQGTQVTLSS” was “low polyreactivity”. As for “QVQLVESGGGLVQAGGSLRLICAASGRIFCNYAMGWSRQAPGKERELVAAISSGGNTYYADSVKGRFTISRDNAKNTVYLQMNSLKPEDSAVYYCNEVYVGWQYGYDYWGQGTQVTVSS”, the entry is “low polyreactivity”. Turning to “QVQLVESGGGLVQAGGSLRLSCAASGRTFRLYAMGWYRQAPGKERELVASISRSVGSTYYADSVKGRFTISRDNAKNTVYLQMNSLKPEDTAVYYCAARSYIPGGWDGAYYYWGQGTQVTVSS”, the “polyreactivity (PSR sort gate)” value was “high polyreactivity”. On to “QVQLVESGGGLVQAGGSLRLSCAASGLIFLDYAMGWYRQAPGKERELVAAISRSGGRTYYADSVKGRFTISGDNAKNTVYLQMNSLKPEDTAVYYCAADGSRKSEIYDYWGQGTQVTVSS”, for which the “polyreactivity (PSR sort gate)” value is reported as “high polyreactivity”. As for “QVQLVEAGGRLVQAGGSLRLSCAASGITFTYYAMGGYRQPPGKDMELVAAISWSGGSTDYADSVKGRFTISRDNAKNTVYLQMNSLKPEDTAFYYCAATFSRFAYYYWGQGTPVTVSS”, the entry is “high polyreactivity”; as for “QLQLVESGGGLVQAGGSLRLSCAASGLILPYYAMGWYRQAPGKERALVAAISRTGGRTSYADSVKGRFTISRDNAKNTVYLQMNSLKPEDTAVYYCAARYGRYYGYNYWGQGTQVTVSS”, “high polyreactivity”; as for “QVQLVESGGGLVQAGGSLRLSCAASGRIFTYAMGWYRQAPGKERELVAAISRRGGSTYYADSVKGRFTISRDNAKNTVYLQMNSLKPEDTAVYYCAKERSFGDGNFDYEYWGQGTQVTVSS”, “high polyreactivity”. The value for “QVQLVESGGGLVQAGGSLRLSCAAYGRTFNDYAMGWYRQAPGKERELVAAIDSDGDTNYADSVKGRFTISRDNAKNTVYLQMNSLKPEDTAVFYCNAVRLVVQEWYYYFTFDYWGQGTQVTVSS” was “low polyreactivity”; that for “QVQLVESGGGLVQAGGSLRLSCAGSGRILVQNDMGWYRQAPGNESELVAAIRSDGSTSYADSVKGRFTISRDNAKYTVYLQMNSLKPEDTAVYYCAARIDWTGGYYDYWGQGTQVTVSS” was “low polyreactivity”. The value for “QVQLVESGGGLVQAGGSLRLSCAASGRIFYTYAMGRYRQAPGKERELVAVISSGGSTNYADSVKGRFTISRDTAKNNVYLQMNSLKPEDTAVYYCNADTGAADYFDFDYWGQGTQVTVSS” was “low polyreactivity”. With “QVQLVESGGGLVQAGGSLRLTCAASGYIFSTYAMGSYRQAPGKERELVASISENGGSTYYADSVKGRFTISRDNAKNTVYLQMNSLKPEDTAVDYCNADAYVDVDDGDYWGEGTQVTVSS”, the “polyreactivity (PSR sort gate)” value was “low polyreactivity”. The value for “QVQLVESGGGIVQAGGSLRLSCAASGFTFKYYARGWYRQAPGKERELVAAIRGSGAGTYYADSVKGRFTISRDNAKNTGYLQMNSLKPEDTAVYYCNKRWTYKWDDYWGQGTQVTVSS” was “high polyreactivity”; that for “QVQLVESGGGLVQAGGSLRLTCAASVSTIAGNAMGWYRQAPGKERELVAVITRVGSTNYADSVKGRFTISRDNAKNTVYLQMKSLKPEDTEVYYCARYGFLLDYWRGGYYWGQGTQVTVSS” was “high polyreactivity”.

As for “QVQLVESGGGLVQAGGSLRLSCAASGLTFWYYAMGWYRQAPGKERELVAAISFSGGRTYYADSVKGRFTISRDNAKYTVYLQMNSLKPEDTAVYYCNKATWYPFWYAPSYDYWGQGTQVTVSS”, the “polyreactivity (PSR sort gate)” value is “high polyreactivity”.

On to “QVQLVESGGGLVQAGGRLRLICDASGRIFYRYAIGWYRQAPGKERELVAVITSSGGRTYYADSVKGRFTISRDTAKNTVYLPMNSLKPEDTAVYYCTAYVRRIVRSYYWGQGTQVTVSS”, for which the “polyreactivity (PSR sort gate)” value is given as “high polyreactivity”. The value for “QVQLVESGGGLVQAGGSLRLSCAASGRTFYVYVMGWYRQAPGKEREFVAAINYGSTYYADSVKGRFTISRDNAKNTVYLQMNSLKPEDTAVYYCATRSGYDSVYYFYTLWYYYWGHGTQVTVSS” was “low polyreactivity”. With “QVQLVESGGGLVQAGGSLRLSCAASGITFRWYAMGWYRQAPGKEREFVAAIDASGSTYYADSVKGRFTISRDNAKNTVYLQMNSLKPEDTAVYYCAADWDEYFGGDYWGQGTQVTVSS”, the “polyreactivity (PSR sort gate)” value was “low polyreactivity”. As for “QDQLVESGGGLVQAGGSLSLSCAASGRTLWRNTMGWYRQAPGKERELVAAITTRGGSTYYADSVKGRFTISRDTAKNTVYLQLNSLKPEDTAVYYCAARTYTGEGSGRFYYWGQGTQVTVSS”, the entry is “high polyreactivity”; as for “QVQLVESGGGLVQAGGSLRLSCAASGLIFSSYAMGWYRQAPGKERELVAAITGSGGRTYYADSVKGRFTISRDNAKNTVYLQMNSLKPEDTAVYYCAAKYPAPRYYTGYDYWGQGTQVTVSS”, “high polyreactivity”; as for “QVQLVESGGGLVQAGGSLRLSCAASGFTFRFYALGWYRQAPGKERELVAAISRRGGTTYYADSVKGRFTISRDNAKNTVYLQMNSLKPEDTAVYYCNKDWTYEHGYWGQGTQVTVSS”, “high polyreactivity”. As for “QVQLVESGGGLVQAGGSLRLSCAASGYNFRHYVMGWYRQAPGKERELVAAITYSGGSTYYADSVKGRFTISRDNAKNTVYLQMNSLKPEDTAVYYCAARRRRSDPYDFWGQGTQVTVSS”, the entry is “high polyreactivity”.
